Data: PMC3602594
Where no end group is shown, it is not given here.

Assays:
[1] = molecular target: Atto647N-YidC-23C (Escherichia coli) (UniProt P25714)
[2] = molecular target: Atto647N-YidC-23C (Escherichia coli) (UniProt P25714); assay: FRET or BRET; single-pair FRET by confocal microscopy with alternating laser excitation (514 nm / 635 nm); Atto520-labeled Pf3 coat protein added to Atto647N-labeled YidC reconstituted in DOPC proteoliposomes; 20 mM Tris-HCl pH 7.0, 100 mM NaCl, isopropanol from the Pf3 solution; about 0.2 nM of both labeled proteins; bursts recorded for 420 s
[3] = molecular target: Atto647N-YidC-442C (Escherichia coli) (UniProt P25714); assay: as above
[4] = molecular target: Atto647N-YidC-511C (Escherichia coli) (UniProt P25714); assay: as above

- insertion rate k (reciprocal of the time required for a distance change from 6.2 to 4.0 nm in single-pair FRET traces), at 15, 20, 25 and 30°C; k ≈ 250 s^−1 at 15°C [1]: 500 s⁻¹
- duration of the close contact [2]: 10 ms
- duration of the close contact [3]: 10 ms
- duration of the close contact [4]: 10 ms
B1: Atto520-Pf3-16C (natural protein)
chain: MQSVITDVTGQLTAVC(Atto520‑maleimide)ADITTIGGAIIVLAAVVLGIRWIKAQFF
